According to patent publication US20190263934A1 (published 2019):

Target: T1, Ab3 WT recombinant Fc fragment (UniProt P01857-1 104-330 = IgG part, limits assumed)
T1 construct: domain: Fc fragment; Ab3 is an Fc fragment
Assay: Biacore SPR, pH 6.0
Protocol: With the biotin CAPture kit, the CAPture reagent was captured on the CAP chip surface to a binding RU of >2,000 RU, followed by 0.1 μg mL⁻¹ FcRn in the appropriate channels for 24 s at 30 uL min⁻¹ to a final binding RU of ˜2 RU. The running buffer for the FcRn binding kinetics experiments was PBS with 0.05% Surfactant P-20 (PBS-P+, GE Healthcare) at pH 6.0 or 7.4. A concentration series of a 4-fold serial dilution from 1000 nM antibody was performed in quadruplicate for each variant, including a 0 nM control. Kinetic measurements were obtained for association and dissociation times of 180 and 300 sec, respectively at a flow rate of 10 μL min⁻¹. The C1 and CAP sensor chips were regenerated with 10 mM sodium tetraborate, 1 M NaCl pH 8.5 (GE Healthcare) for 30 sec at 50 μL min⁻¹ or 6 M guanidine hydrochloride, 250 mM sodium hydroxide (GE Healthcare) for 120 s at 50 uL min¹, respectively, followed by an additional 60-90 sec stabilization step in PBS-P+pH 6.0. […]
Kinetic parameters for the concentration series at pH 6.0 were fit to a bivalent model using the Biacore T200 Evaluation Software due to avidity effects. […] The apparent binding affinity was calculated from the first on and off-rates from the bivalent model. The residual binding at pH 7.4 was measured using 1000 nM of each antibody in triplicate at the same time for response comparison.

Kd: 61 nM
B1: mouse FcRn (receptor)
chain: SETRPPLMYHLTAVSNPSTGLPSFWATGWLGPQQYLTYNSLRQEADPCGAWMWENQVSWYWEKETTDLKSKEQLFLEALKTLEKILNGTYTLQGLLGCELASDNSSVPTAVFALNGEEFMKFNPRIGNWTGEWPETEIVANLWMKQPDAARKESEFLLNSCPERLLGHLERGRRNLEWKEPPSMRLKARPGNSGSSVLTCAAFSFYPPELKFRFLRNGLASGSGNCSTGPNGDGSFHAWSLLEVKRGDEHHYQCQVEHEGLAQPLTVDLDSSARSS
b2m: IQKTPQIQVYSRHPPENGKPNILNCYVTQFHPPHIEIQMLKNGKKIPKVEMSDMSFSKDWSFYILAHTEFTPTETDTYACRVKHASMAEPKTVYWDRDM
modifications: biotinylated
notes: only 'biotinylated ... mouse FcRn' is told; also called mFcRn
